# T1: mutant BH3 peptide (aa 108-127) in which Thr119 was substituted to alanine (T119A)
# T1 chain: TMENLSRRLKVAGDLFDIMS
# T2: peptide corresponding to Beclin's BH3 domain (aa 108-127)
# T2 chain: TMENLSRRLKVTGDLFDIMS
# B1: Flag-tagged DAPk (full length) (protein)
# chain: MTVFRQENVDDYYDTGEELGSGQFAVVKKCREKSTGLQYAAKFIKKRRTKSSRRGVSREDIEREVSILKEIQHPNVITLHEVYENKTDVILILELVAGGELFDFLAEKESLTEEEATEFLKQILNGVYYLHSLQIAHFDLKPENIMLLDRNVPKPRIKIIDFGLAHKIDFGNEFKNIFGTPEFVAPEIVNYEPLGLEADMWSIGVITYILLSGASPFLGDTKQETLANVSAVNYEFEDEYFSNTSALAKDFIRRLLVKDPKKRMTIQDSLQHPWIKPKDTQQALSRKASAVNMEKFKKFAARKKWKQSVRLISLCQRLSRSFLSRSNMSVARSDDTLDEEDSFVMKAIIHAINDDNVPGLQHLLGSLSNYDVNQPNKHGTPPLLIAAGCGNIQILQLLIKRGSRIDVQDKGGSNAVYWAARHGHVDTLKFLSENKCPLDVKDKSGEMALHVAARYGHADVAQLLCSFGSNPNIQDKEEETPLHCAAWHGYYSVAKALCEAGCNVNIKNREGETPLLTASARGYHDIVECLAEHGADLNACDKDGHIALHLAVRRCQMEVIKTLLSQGCFVDYQDRHGNTPLHVACKDGNMPIVVALCEANCNLDISNKYGRTPLHLAANNGILDVVRYLCLMGASVEALTTDGKTAEDLARSEQHEHVAGLLARLRKDTHRGLFIQQLRPTQNLQPRIKLKLFGHSGSGKTTLVESLKCGLLRSFFRRRRPRLSSTNSSRFPPSPLASKPTVSVSINNLYPGCENVSVRSRSMMFEPGLTKGMLEVFVAPTHHPHCSADDQSTKAIDIQNAYLNGVGDFSVWEFSGNPVYFCCYDYFAANDPTSIHVVVFSLEEPYEIQLNQVIFWLSFLKSLVPVEEPIAFGGKLKNPLQVVLVATHADIMNVPRPAGGEFGYDKDTSLLKEIRNRFGNDLHISNKLFVLDAGASGSKDMKVLRNHLQEIRSQIVSVCPPMTHLCEKIISTLPSWRKLNGPNQLMSLQQFVYDVQDQLNPLASEEDLRRIAQQLHSTGEINIMQSETVQDVLLLDPRWLCTNVLGKLLSVETPRALHHYRGRYTVEDIQRLVPDSDVEELLQILDAMDICARDLSSGTMVDVPALIKTDNLHRSWADEEDEVMVYGGVRIVPVEHLTPFPCGIFHKVQVNLCRWIHQQSTEGDADIRLWVNGCKLANRGAELLVLLVNHGQGIEVQVRGLETEKIKCCLLLDSVCSTIENVMATTLPGLLTVKHYLSPQQLREHHEPVMIYQPRDFFRAQTLKETSLTNTMGGYKESFSSIMCFGCHDVYSQASLGMDIHASDLNLLTRRKLSRLLDPPDPLGKDWCLLAMNLGLPDLVAKYNTSNGAPKDFLPSPLHALLREWTTYPESTVGTLMSKLRELGRRDAADFLLKASSVFKINLDGNGQEAYASSCNSGTSYNSISSVVSR
# B2: DAPk's catalytic domain (DK1), bacterially purified (protein)
# chain: MTVFRQENVDDYYDTGEELGSGQFAVVKKCREKSTGLQYAAKFIKKRRTKSSRRGVSREDIEREVSILKEIQHPNVITLHEVYENKTDVILILELVAGGELFDFLAEKESLTEEEATEFLKQILNGVYYLHSLQIAHFDLKPENIMLLDRNVPKPRIKIIDFGLAHKIDFGNEFKNIFGTPEFVAPEIVNYEPLGLEADMWSIGVITYILLSGASPFLGDTKQETLANVSAVNYEFEDEYFSNTSALAKDFIRRLLVKDPKKRMTIQDSLQHPWIKPKDTQQALS
# Experiments:
# [1] = target: GST protein (GST alone) [GST: P08515]
# GST protein (GST alone) [GST: P08515], sequence (P08515 whole entry): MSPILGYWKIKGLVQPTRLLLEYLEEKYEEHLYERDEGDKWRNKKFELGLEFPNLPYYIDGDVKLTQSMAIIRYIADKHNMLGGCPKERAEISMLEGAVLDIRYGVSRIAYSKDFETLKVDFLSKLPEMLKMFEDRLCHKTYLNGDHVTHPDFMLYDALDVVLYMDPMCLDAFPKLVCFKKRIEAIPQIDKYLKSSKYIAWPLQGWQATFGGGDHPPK
# [2] = target: Flag-tagged Beclin-1 (wild type)
# Flag-tagged Beclin-1 (wild type), sequence (chain, as listed by the source): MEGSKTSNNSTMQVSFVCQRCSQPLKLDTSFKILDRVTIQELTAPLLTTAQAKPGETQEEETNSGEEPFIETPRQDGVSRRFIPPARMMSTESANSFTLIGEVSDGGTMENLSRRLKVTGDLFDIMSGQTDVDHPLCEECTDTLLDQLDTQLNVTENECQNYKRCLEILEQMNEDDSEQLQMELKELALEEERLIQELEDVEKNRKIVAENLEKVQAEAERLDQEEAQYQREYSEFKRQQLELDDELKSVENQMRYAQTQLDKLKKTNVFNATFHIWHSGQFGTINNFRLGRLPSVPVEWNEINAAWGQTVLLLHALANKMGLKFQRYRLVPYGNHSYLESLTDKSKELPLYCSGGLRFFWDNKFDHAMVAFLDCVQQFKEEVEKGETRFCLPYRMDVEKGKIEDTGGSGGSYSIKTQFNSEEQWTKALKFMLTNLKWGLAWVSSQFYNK
# [3] = target: GST-Beclin-1 fusion protein (wild type, bacterially purified, not phosphorylated)
# GST-Beclin-1 fusion protein (wild type, bacterially purified, not phosphorylated), sequence (chain, as listed by the source): as above
# [4] = target: T1, mutant BH3 peptide (aa 108-127) in …
# [5] = target: T2, peptide corresponding to Beclin's BH3 …
protein,measurement,setting,value
B1,"in vitro kinase assay, 33P incorporation (X-ray film)",[1],"GST-Beclin-1, but not GST alone, was phosphorylated by DAPk"
same,"in vitro kinase assay, 33P incorporation (X-ray film)",[2],"The phosphorylation by Flag-tagged (60 ng) DAPk was also observed when Flag-tagged Beclin-1 (250 ng), immunoprecipitated from HEK293T cells, was used as a substrate"
same,"in vitro kinase assay, 33P incorporation (X-ray film)",[3],"GST-Beclin-1, but not GST alone, was phosphorylated by DAPk"
same,phosphorylation site mapping by mass spectrometry,[3],"two phosphorylation sites were identified with good accuracy ... a phosphorylation on S104 or T108, and the second was identified as Thr119"
B2,"peptide phosphorylation, filter assay counts",[4],Changing Thr119 to alanine strongly inhibited the extent of peptide phosphorylation
same,"peptide phosphorylation, filter assay counts against substrate concentration",[5],DAPk phosphorylates Beclin's BH3 peptide in a dose-dependent manner
